Measurements reported in US20240251767A1 (LEVERAGEN, published 2024).
Read-outs that look alike come from different tables or passages of the source.

B1: MS329_5 Nb-human Fc fusion (Fc fusion, not shown: a dimerising Fc or GST)
VH: EVQLQQSGPELVKPGASVKMSCKASGYTFTDYYIKWEKQSHGKSLEWIGDINPKNGETFYNQQFKGKATLTVDKSSSTAYMQLNSLTSEDSAVYYCARKEYGDYGYAVDYWGQGTSVTVSS
notes: also called LVGN-S3205; LVGN-53205
B2: M2S521_378 Nb-human Fc fusion (Fc fusion, not shown: a dimerising Fc or GST)
VH: EVQLQQSGPELVKPGASVKISCKASGYTFTDYYMKWVKQSHGKSLEWIGDINPKNGGTNYNQKFKDKATLTVDKSSSTAYMELRSLTSEDSAVYYCARLEDGYYGYAIDYWSQGTSVTVSS
notes: also called LVGN-S231378; LVGN-S521378

Legend:
[1] = target: T1, Spike protein of the COVID-19 Spike-ACE2 Binding Assay Kit (Raybiotech) (SARS-CoV2, UniProt P0DTC2 319-541)
[2] = target: T1, Spike protein of the COVID-19 …; remark: listed apart in the source

| Binder | IC50 [1] | IC50 [2] |
| --- | --- | --- |
| B1 | 0.4 nM | 0.397 nM |
| B2 | 3.3 nM | – |
